Experimental data: US20160355588A1 (published 2016)
Where two headings read alike, the source gives them in different places.

Columns and labels:
[1] = biological target: T1, CD3 on Jurkat T cells (human, UniProt P07766 23-207); experiment: whole cell binding
[2] = biological target: T1, CD3 on Jurkat T cells; experiment: whole cell binding; remark: listed apart in the source
[3] = biological target: v1653; experiment: whole cell binding
[4] = biological target: v6475; experiment: whole cell binding
[5] = biological target: T1, CD3 on Jurkat T cells
[6] = biological target: T1, CD3 on Jurkat T cells; remark: listed apart in the source

| Binder | Kd [1] | Kd [2] | further results |
| --- | --- | --- | --- |
| v1853 (bispecific antibody) heavy: QVQLVQSGGGVVQPGRSLRLSCKASGYTFTRYTMHWVRQAPGKGLEWIGYINPSRGYTNYNQKVKDRFTISRDNSKNTAFLQMDSLRPEDTGVYFCARYYDDHYCLDYWGQGTPVTVSSASTKGPSVFPLAPSSKSTSGGTAALGCLVKDYFPEPVTVSWNSGALTSGVHTFPAVLQSSGLYSLSSVVTVPSSSLGTQTYICNVNHKPSNTKVDKKVEPKSCDKTHTCPPCPAPELLGGPSVFLFPPKPKDTLMISRTPEVTCVVVDVSHEDPEVKFNWYVDGVEVHNAKTKPREEQYNSTYRVVSVLTVLHQDWLNGKEYKCKVSNKALPAPIEKTISKAKGQPREPQVYVYPPSRDELTKNQVSLTCLVKGFYPSDIAVEWESNGQPENNYKTTPPVLDSDGSFALVSKLTVDKSRWQQGNVFSCSVMHEALHNHYTQKSLSLSPGK not shown light: DIQMTQSPSSLSASVGDRVTITCSASSSVSYMNWYQQTPGKAPKRWIYDTSKLASGVPSRFSGSGSGTDYTFTISSLQPEDIATYYCQQWSSNPFTFGQGTKLQITRTVAAPSVFIFPPSDEQLKSGTASVVCLLNNFYPREAKVQWKVDNALQSGNSQESVTEQDSKDSTYSLSSTLTLSKADYEKHKVYACEVTHQGLSSPVTKSFNRGEC | ~5 nM | ~5 nM | – |
| Raji B cells (receptor) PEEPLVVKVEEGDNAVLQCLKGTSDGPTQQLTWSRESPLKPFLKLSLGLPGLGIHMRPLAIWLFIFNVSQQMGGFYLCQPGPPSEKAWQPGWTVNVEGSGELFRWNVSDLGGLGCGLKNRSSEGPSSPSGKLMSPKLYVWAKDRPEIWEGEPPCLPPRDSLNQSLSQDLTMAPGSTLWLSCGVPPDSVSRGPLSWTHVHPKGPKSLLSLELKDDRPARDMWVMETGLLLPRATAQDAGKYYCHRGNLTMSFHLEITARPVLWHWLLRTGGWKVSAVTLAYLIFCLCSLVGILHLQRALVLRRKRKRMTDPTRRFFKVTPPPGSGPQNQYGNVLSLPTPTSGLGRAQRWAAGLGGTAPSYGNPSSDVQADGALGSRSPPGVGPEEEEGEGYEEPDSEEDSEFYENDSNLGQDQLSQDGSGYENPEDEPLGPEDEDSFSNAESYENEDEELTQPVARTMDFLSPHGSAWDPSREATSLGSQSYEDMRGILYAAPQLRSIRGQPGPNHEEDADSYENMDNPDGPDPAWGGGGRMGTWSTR | – | – | Kd [3]: 1.4 nM; Kd [4]: 1.5 nM |
| v6750 (bispecific antibody) heavy: QVQLQQSGAELVRPGSSVKISCKASGYAFSSYWMNWVKQRPGQGLEWIGQIWPGDGDTNYNGKFKGKATLTADESSSTAYMQLSSLASEDSAVYFCARRETTTVGRYYYAMDYWGQGTTVTVSSASTKGPSVFPLAPSSKSTSGGTAALGCLVKDYFPEPVTVSWNSGALTSGVHTFPAVLQSSGLYSLSSVVTVPSSSLGTQTYICNVNHKPSNTKVDKKVEPKSCDKTHTCPPCPAPELLGGPSVFLFPPKPKDTLMISRTPEVTCVVVDVSHEDPEVKFNWYVDGVEVHNAKTKPREEQYNSTYRVVSVLTVLHQDWLNGKEYKCKVSNKALPAPIEKTISKAKGQPREPQVYVYPPSRDELTKNQVSLTCLVKGFYPSDIAVEWESNGQPENNYKTTPPVLDSDGSFALVSKLTVDKSRWQQGNVFSCSVMHEALHNHYTQKSLSLSPG not shown light: not shown | – | – | Kd [5]: ~30 nM; Kd [6]: ~30 nM |
| v875 (bispecific antibody) chain 1: DIQLTQSPASLAVSLGQRATISCKASQSVDYDGDSYLNWYQQIPGQPPKLLIYDASNLVSGIPPRFSGSGSGTDFTLNIHPVEKVDAATYHCQQSTEDPWTFGGGTKLEIKGGGGSGGGGSGGGGSQVQLQQSGAELVRPGSSVKISCKASGYAFSSYWMNWVKQRPGQGLEWIGQIWPGDGDTNYNGKFKGKATLTADESSSTAYMQLSSLASEDSAVYFCARRETTTVGRYYYAMDYWGQGTTVTVSSAAEPKSSDKTHTCPPCPAPELLGGPSVFLFPPKPKDTLMISRTPEVTCVVVDVSHEDPEVKFNWYVDGVEVHNAKTKPREEQYNSTYRVVSVLTVLHQDWLNGKEYKCKVSNKALPAPIEKTISKAKGQPREPQVYTYPPSRDELTKNQVSLTCLVKGFYPSDIAVEWESNGQPENNYKTTPPVLDSDGSFALVSKLTVDKSRWQQGNVFSCSVMHEALHNHYTQKSLSLSPGK chain 2: not shown | ~30 nM | ~30 nM | – |
